In paper PMC8073977, “Structural Basis for the C-Terminal Domain of Mycobacterium tuberculosis Ribosome Maturation Factor RimM to Bind Ribosomal Protein S19” (Biomolecules, 2021):

Target: T1, Ribosomal protein S19 from Mycobacterium tuberculosis (MtbS19, residues 1-93) (Mycobacterium tuberculosis strain H37Rv, UniProt P9WH45 1-93)
T1 construct: 30S ribosomal protein S19, M. tuberculosis H37Rv, residues 1-93; pET-28a with thrombin-cleavable N-terminal His6-tag; Surmise: a few vector residues remain at the N-terminus after thrombin cleavage; In PDB 5V93 residues 84-93 of S19 are absent; not shown: His6, N-terminal, cleaved
Assay: SPR; Biacore T200, 298 K; […]; 20 mM potassium phosphate pH 7.2, 100 mM KCl; […]
Conditions: both partners purified

T1 sequence (P9WH45 whole entry, the tested form may be a part): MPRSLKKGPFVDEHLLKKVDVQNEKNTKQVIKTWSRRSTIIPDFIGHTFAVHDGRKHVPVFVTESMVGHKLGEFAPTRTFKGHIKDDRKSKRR

| Binder | Kd | binding result |
| --- | --- | --- |
| C-terminal domain of RimM from Mycobacterium tuberculosis (MtbRimMCTD, residues 101-176), wild type (domain or fragment, A starting Met stands before D101 (Nde I site); Surmise: pET-22b with Xho I adds Leu-Glu before the His6 tag; Theoretical Mw of the recombinant protein printed as 9.28 kDa; 15N-labelled in the NMR titrations, unlabelled in SPR; also called WT MtbRimMCTD; not shown: His6, C-terminal, kept) DTYYDHQLVGLMVQTATGEGVGVVTEVVHTAAGELLAVKRDSDEVLVPFVRAIVTSVSLDDGIVEIDPPHGLLNLE | 2.16 µM |  |
| MtbRimMCTD H129A (domain or fragment, Same limits and tag as m1; not shown: His6, C-terminal, kept) DTYYDHQLVGLMVQTATGEGVGVVTEVVATAAGELLAVKRDSDEVLVPFVRAIVTSVSLDDGIVEIDPPHGLLNLE | 12.7 µM |  |
| MtbRimMCTD D105A (domain or fragment, Same limits and tag as m1; also called MtbRimM D105A; not shown: His6, C-terminal, kept) DTYYAHQLVGLMVQTATGEGVGVVTEVVHTAAGELLAVKRDSDEVLVPFVRAIVTSVSLDDGIVEIDPPHGLLNLE | 7.06 µM |  |
| MtbRimMCTD E144A (domain or fragment, Same limits and tag as m1; not shown: His6, C-terminal, kept) DTYYDHQLVGLMVQTATGEGVGVVTEVVHTAAGELLAVKRDSDAVLVPFVRAIVTSVSLDDGIVEIDPPHGLLNLE |  | binds |
| MtbRimMCTD E126A (domain or fragment, Same limits and tag as m1; not shown: His6, C-terminal, kept) DTYYDHQLVGLMVQTATGEGVGVVTAVVHTAAGELLAVKRDSDEVLVPFVRAIVTSVSLDDGIVEIDPPHGLLNLE |  | binds |
